Data as given in article PMC2800235.

Molecular target: MBP-transposase fusion protein (reconstituted ancestral Hsmar1 transposase) (human (reconstructed ancestral sequence of the human Hsmar1 transposon))
Assay: SEC

stoichiometry N: 2
Substance: MBP-transposase fusion protein (reconstituted ancestral Hsmar1 transposase) (enzyme)
